B1: WEE1 (parent)
chain: FLGSSFSPVRCGGPGDASPRGCGA
B2: DCAF4 (parent)
chain: DSHILLCLMGLAETPGCATLLPAS

Variants of: B1
Assay: protein stability index of a GFP-peptide fusion (GPS, HEK-293T) (PSI 1-6); higher = more stable
Conditions: c terminus: a fixed tail appended
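Note: lentivirally expressed fusions sorted by FACS into six bins by GFP to DsRed ratio, PSI derived from sequencing read proportions per bin multiplied by bin number.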

Protein stability index, by site and new letter:
L2: A 2.06, Q 1.85, H 2.02, W 2.35, T 1.6, Y 2.19, R 3.13, D 3.37, K 3.1, E 3.41, S 3.18, G 1.93, P 2.04, M 2.07, C 1.95, F 2.51, N 2.45
S5: K 1.8, T 1.59, L 2.13, H 1.73, R 1.63, D 2.37, A 1.98, G 1.91, P 2.17, M 2.27, F 4.63, V 1.39, Y 2.51, Q 1.58, N 1.92, E 1.52, I 1.92
S7: A 1.4
F6: R 2.95, E 3.91, M 3.29, Q 3.41, D 3.42, N 3.06, P 3.52, G 3.36, A 2.17, C 3.15, V 2.15, T 2.76, Y 1.81, L 2.84, H 2.48, S 2.87, I 3.26, K 3
G3: Q 2.33, M 1.68, V 2.51, H 2.85, K 2.16, L 1.65, E 2.58, S 1.92, F 2.67, R 2.34, N 1.32, A 2.19, T 1.48, W 2.79, I 2.82, D 2.02, P 2.12, Y 1.91, C 1.91
F1: C 2.82, M 2.29, S 2.87, K 2.95, P 3.4, I 2.72, A 2.89, Q 3.36, N 2.48, L 2.56, D 2.95, W 2.16, Y 1.87, V 3.77, G 3.25, T 2.82, R 2.46, H 3.26
S4: F 1.93, H 1.24, A 1.79, Q 1.86, K 2.34, R 1.69, T 1.56, Y 1.75, I 2.49, C 2.19, G 2.16, E 2.65, D 2.39, M 2.06, P 1.82, V 1.46, L 1.48, N 2.07

Variants of: B2
Assay: as above
Conditions: c terminus: a fixed tail appended

Protein stability index, by site and new letter:
L20: P 2, G 2.44, H 2.36, N 2.9, S 2.54, I 2.38, C 2.91, M 2.52, F 3.14, R 2.34, A 3.72, Y 3.25, D 2.36, E 1.9, Q 1.93
L6: G 1.87, H 1.9, N 1.75, R 2.98, V 1.37, W 4.4, E 2.01, D 2.22, C 3.71, S 1.53, M 2.02, A 1.87, K 2.19, Y 2.86
L8: N 2.58, T 1.97, H 1.51, D 3.14, G 1.93, S 1.69, P 2.5, Q 1.95
I4: H 1.64, W 2.97, L 2.96, N 1.93, M 1.86, G 2.11, E 1.99, A 1.67, T 1.93, K 2.2
A12: W 4.01, N 1.69, Q 2.74, H 2.59, D 2.02, L 2.76, F 3.3, M 2.66, S 2.37
E13: D 3.06, S 3.26, L 2.42
